Source: publication PMC2756588

T1: Abp1, P15891
T1 sequence (P15891 535-592, looked up): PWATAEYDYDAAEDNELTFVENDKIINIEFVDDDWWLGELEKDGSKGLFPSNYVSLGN

T2: Bbc1, P47068
T2 sequence (P47068 1-78, looked up): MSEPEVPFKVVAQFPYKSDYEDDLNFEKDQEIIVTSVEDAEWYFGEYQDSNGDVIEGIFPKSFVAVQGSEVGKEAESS

T3: Boi1, P38041
T3 sequence (P38041 1-86, looked up): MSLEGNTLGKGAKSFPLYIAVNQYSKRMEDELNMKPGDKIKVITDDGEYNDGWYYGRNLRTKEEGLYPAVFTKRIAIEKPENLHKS

T4: Boi2, P39969
T4 sequence (P39969 32-116, looked up): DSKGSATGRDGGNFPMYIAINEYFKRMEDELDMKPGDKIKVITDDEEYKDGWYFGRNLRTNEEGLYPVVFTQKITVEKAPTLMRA

T5: Bud14, P27637
T5 sequence (P27637 247-328, looked up): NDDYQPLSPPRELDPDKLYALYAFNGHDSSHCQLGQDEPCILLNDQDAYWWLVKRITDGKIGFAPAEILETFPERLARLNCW

T6: Bzz1-1, P38822
T6 sequence (P38822 478-572, looked up): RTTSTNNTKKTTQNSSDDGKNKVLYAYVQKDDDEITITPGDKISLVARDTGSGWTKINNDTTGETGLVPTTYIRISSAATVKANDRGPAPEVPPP

T7: Bzz1-2, P38822
T7 sequence (P38822 568-633, looked up): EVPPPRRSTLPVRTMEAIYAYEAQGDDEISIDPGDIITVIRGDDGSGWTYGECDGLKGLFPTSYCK

T8: Cdc25, P04821
T8 sequence (P04821 50-136, looked up): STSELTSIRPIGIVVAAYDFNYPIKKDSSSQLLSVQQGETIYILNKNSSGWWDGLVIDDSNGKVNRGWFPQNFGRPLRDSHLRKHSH

T9: Cyk3, Q07533
T9 sequence (Q07533 1-83, looked up): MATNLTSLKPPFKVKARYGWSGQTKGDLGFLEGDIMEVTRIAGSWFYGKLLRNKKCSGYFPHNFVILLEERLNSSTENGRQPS

T10: Fus1, P11710
T10 sequence (P11710 432-512, looked up): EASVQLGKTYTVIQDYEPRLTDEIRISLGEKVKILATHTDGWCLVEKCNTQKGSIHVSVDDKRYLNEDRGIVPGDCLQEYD

T11: Hof1, Q05080
T11 sequence (Q05080 590-669, looked up): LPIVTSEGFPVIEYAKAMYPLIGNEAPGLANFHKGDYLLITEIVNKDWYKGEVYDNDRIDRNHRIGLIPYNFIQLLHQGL

T12: Hse1, P38753
T12 sequence (P38753 208-285, looked up): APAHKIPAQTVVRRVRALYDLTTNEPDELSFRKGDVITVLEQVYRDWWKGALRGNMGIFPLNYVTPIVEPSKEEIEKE

T13: Lsb1, P53281
T13 sequence (P53281 45-122, looked up): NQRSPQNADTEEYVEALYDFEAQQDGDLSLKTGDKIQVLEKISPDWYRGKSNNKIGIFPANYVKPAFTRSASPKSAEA

T14: Lsb3, P43603
T14 sequence (P43603 385-451, looked up): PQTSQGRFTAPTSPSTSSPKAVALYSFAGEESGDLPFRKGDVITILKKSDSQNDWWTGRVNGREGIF

T15: Lsb4, P32793
T15 sequence (P32793 402-468, looked up): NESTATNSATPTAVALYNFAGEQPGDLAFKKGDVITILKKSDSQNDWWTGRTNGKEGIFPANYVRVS

T16: Myo5, Q04439
T16 sequence (Q04439 1072-1160, looked up): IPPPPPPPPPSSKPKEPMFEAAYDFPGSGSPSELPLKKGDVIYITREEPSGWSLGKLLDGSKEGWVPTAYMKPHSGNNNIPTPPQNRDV

T17: Nbp2, Q12163
T17 sequence (Q12163 103-180, looked up): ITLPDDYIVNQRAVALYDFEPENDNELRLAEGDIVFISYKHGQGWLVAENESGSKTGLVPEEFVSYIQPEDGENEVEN

T18: Pex13, P80667
T18 sequence (P80667 295-386, looked up): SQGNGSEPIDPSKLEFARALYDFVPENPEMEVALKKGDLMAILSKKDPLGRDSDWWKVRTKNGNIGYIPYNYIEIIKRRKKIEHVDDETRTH

T19: Pin3, Q06449
T19 sequence (Q06449 53-122, looked up): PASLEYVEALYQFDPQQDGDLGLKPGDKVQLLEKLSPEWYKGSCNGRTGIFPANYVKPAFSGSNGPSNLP

T20: Sla1-2, P32790
T20 sequence (P32790 60-140, looked up): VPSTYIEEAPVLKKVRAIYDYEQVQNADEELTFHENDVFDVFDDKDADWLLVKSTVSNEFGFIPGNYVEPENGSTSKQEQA

T21: Sla1-3, P32790
T21 sequence (P32790 344-424, looked up): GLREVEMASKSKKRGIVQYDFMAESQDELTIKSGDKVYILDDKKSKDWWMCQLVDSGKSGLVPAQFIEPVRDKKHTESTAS


Columns and labels:
Assay in all cases: SPOT array
Abp1, P15891 = molecular target: T1, Abp1, P15891; details: median of control spots 935
Bbc1, P47068 = molecular target: T2, Bbc1, P47068; details: median of control spots 796
Bem1-1, P29366 = details: median of control spots 4282
Bem1-1, P29366, sequence (P29366 55-141): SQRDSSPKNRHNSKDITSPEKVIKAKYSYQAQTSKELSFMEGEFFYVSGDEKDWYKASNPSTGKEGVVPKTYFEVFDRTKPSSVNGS

Bem1-2, P29366 = details: median of control spots 4347
Bem1-2, P29366, sequence (P29366 139-227): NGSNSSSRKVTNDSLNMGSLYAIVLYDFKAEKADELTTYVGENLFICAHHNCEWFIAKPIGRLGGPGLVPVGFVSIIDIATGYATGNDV

Boi1, P38041 = molecular target: T3, Boi1, P38041; details: median of control spots 1162
Boi2, P39969 = molecular target: T4, Boi2, P39969; details: median of control spots 1161
Bud14, P27637 = molecular target: T5, Bud14, P27637; details: median of control spots 956
Bzz1-1, P38822 = molecular target: T6, Bzz1-1, P38822; details: median of control spots 4446
Bzz1-2, P38822 = molecular target: T7, Bzz1-2, P38822; details: median of control spots 4538
Cdc25, P04821 = molecular target: T8, Cdc25, P04821; details: median of control spots 969
Cyk3, Q07533 = molecular target: T9, Cyk3, Q07533; details: median of control spots 1451
Fus1, P11710 = molecular target: T10, Fus1, P11710; details: median of control spots 1200
GST = details: median of control spots 978
Hof1, Q05080 = molecular target: T11, Hof1, Q05080; details: median of control spots 4086
Hse1, P38753 = molecular target: T12, Hse1, P38753; details: median of control spots 1727
Lsb1, P53281 = molecular target: T13, Lsb1, P53281; details: median of control spots 388
Lsb3, P43603 = molecular target: T14, Lsb3, P43603; details: median of control spots 406
Lsb4, P32793 = molecular target: T15, Lsb4, P32793; details: median of control spots 397
Myo3, P36006 = details: median of control spots 468
Myo5, Q04439 = molecular target: T16, Myo5, Q04439; details: median of control spots 471
Nbp2, Q12163 = molecular target: T17, Nbp2, Q12163; details: median of control spots 357
Pex13, P80667 = molecular target: T18, Pex13, P80667; details: median of control spots 1341
Pin3, Q06449 = molecular target: T19, Pin3, Q06449; details: median of control spots 2171
Rvs167, P39743 = details: median of control spots 2707
Rvs167, P39743, sequence (P39743 419-482): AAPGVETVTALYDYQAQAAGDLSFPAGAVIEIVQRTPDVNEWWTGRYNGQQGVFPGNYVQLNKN

Sho1, P40073 = details: median of control spots 1148
Sho1, P40073, sequence (P40073 287-367): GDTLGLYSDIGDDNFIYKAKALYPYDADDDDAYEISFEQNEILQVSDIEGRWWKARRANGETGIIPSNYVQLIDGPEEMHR

Sla1-2, P32790 = molecular target: T20, Sla1-2, P32790; details: median of control spots 712
Sla1-3, P32790 = molecular target: T21, Sla1-3, P32790; details: median of control spots 5475

Binder | SPOT intensity (Abp1, P15891) | SPOT intensity (Bbc1, P47068) | SPOT intensity (Bem1-1, P29366) | SPOT intensity (Bem1-2, P29366) | SPOT intensity (Boi1, P38041) | SPOT intensity (Boi2, P39969) | SPOT intensity (Bud14, P27637) | SPOT intensity (Bzz1-1, P38822) | SPOT intensity (Bzz1-2, P38822) | SPOT intensity (Cdc25, P04821) | SPOT intensity (Cyk3, Q07533) | SPOT intensity (Fus1, P11710) | SPOT intensity (GST) | SPOT intensity (Hof1, Q05080) | SPOT intensity (Hse1, P38753) | SPOT intensity (Lsb1, P53281) | SPOT intensity (Lsb3, P43603) | SPOT intensity (Lsb4, P32793) | SPOT intensity (Myo3, P36006) | SPOT intensity (Myo5, Q04439) | further results
AKDLIVPRRPEWNEG | 766 | 1050 | 3920 | 5580 | 1450 | 1640 | 480 | 2630 | 2660 | 347 | 2720 | 1230 | 446 | 5260 | 1130 | 636 | 591 | 768 | 461 | 624 | SPOT intensity (Nbp2, Q12163): 1390; SPOT intensity (Pex13, P80667): 567; SPOT intensity (Pin3, Q06449): 694; SPOT intensity (Rvs167, P39743): 1950; SPOT intensity (Sho1, P40073): 1570; SPOT intensity (Sla1-2, P32790): 550; SPOT intensity (Sla1-3, P32790): 2730
KDKKTKPTPPPKPSH | 190 | 0 | 1 | 5 | 0 | 0 | 4 | 0 | 1 | 2 | 2 | 4 | 3 | 0 | 2 | 0 | 2 | 0 | 0 | 0 | SPOT intensity (Nbp2, Q12163): 2; SPOT intensity (Pex13, P80667): 0; SPOT intensity (Pin3, Q06449): 0; SPOT intensity (Rvs167, P39743): 1; SPOT intensity (Sho1, P40073): 50; SPOT intensity (Sla1-2, P32790): 1; SPOT intensity (Sla1-3, P32790): 0
DKKTKPTPPPKPSHL | 410 | 0 | 0 | 1 | 3 | 2 | 1 | 1 | 0 | 1 | 0 | 0 | 0 | 3 | 4 | 0 | 24 | 0 | 0 | 0 | SPOT intensity (Nbp2, Q12163): 0; SPOT intensity (Pex13, P80667): 4; SPOT intensity (Pin3, Q06449): 0; SPOT intensity (Rvs167, P39743): 0; SPOT intensity (Sho1, P40073): 115; SPOT intensity (Sla1-2, P32790): 1; SPOT intensity (Sla1-3, P32790): 0

Continued, in another order:

SPOT intensity (Abp1, P15891) | SPOT intensity (Bbc1, P47068) | SPOT intensity (Bem1-1, P29366) | SPOT intensity (Bem1-2, P29366) | SPOT intensity (Boi1, P38041) | SPOT intensity (Boi2, P39969) | SPOT intensity (Bud14, P27637) | SPOT intensity (Bzz1-1, P38822) | SPOT intensity (Bzz1-2, P38822) | SPOT intensity (Cdc25, P04821) | SPOT intensity (Cyk3, Q07533) | SPOT intensity (Fus1, P11710) | SPOT intensity (GST) | SPOT intensity (Hof1, Q05080) | SPOT intensity (Hse1, P38753) | SPOT intensity (Lsb1, P53281) | SPOT intensity (Lsb3, P43603) | SPOT intensity (Lsb4, P32793) | SPOT intensity (Myo3, P36006) | SPOT intensity (Myo5, Q04439) | Binder | further results
285 | 13 | 1 | 2 | 4 | 0 | 7 | 3 | 11 | 0 | 3 | 0 | 2 | 0 | 38 | 0 | 55 | 2 | 3 | 0 | GSKSGPPPRPKKPST | SPOT intensity (Nbp2, Q12163): 0; SPOT intensity (Pex13, P80667): 23; SPOT intensity (Pin3, Q06449): 2; SPOT intensity (Rvs167, P39743): 1; SPOT intensity (Sho1, P40073): 16; SPOT intensity (Sla1-2, P32790): 1; SPOT intensity (Sla1-3, P32790): 4
631 | 1 | 0 | 0 | 0 | 0 | 1 | 0 | 0 | 2 | 1 | 2 | 0 | 3 | 11 | 0 | 75 | 5 | 0 | 0 | TKPTPPPKPSHLKPK | SPOT intensity (Nbp2, Q12163): 1; SPOT intensity (Pex13, P80667): 266; SPOT intensity (Pin3, Q06449): 0; SPOT intensity (Rvs167, P39743): 0; SPOT intensity (Sho1, P40073): 199; SPOT intensity (Sla1-2, P32790): 0; SPOT intensity (Sla1-3, P32790): 1
232 | 266 | 1 | 19 | 6 | 1 | 19 | 0 | 28 | 27 | 3 | 6 | 2 | 4 | 51 | 69 | 48 | 81 | 30 | 0 | FPPKRKPLLRPQRSD | SPOT intensity (Nbp2, Q12163): 9; SPOT intensity (Pex13, P80667): 16; SPOT intensity (Pin3, Q06449): 19; SPOT intensity (Rvs167, P39743): 25; SPOT intensity (Sho1, P40073): 154; SPOT intensity (Sla1-2, P32790): 1; SPOT intensity (Sla1-3, P32790): 25
